Assay results from publication PMC10130016, “Millisecond cryo-trapping by the spitrobot crystal plunger simplifies time-resolved crystallography” (Nature Communications, 2023).

Target: T1, Salmonella typhimurium tryptophan synthase TrpB subunit (Salmonella typhimurium, UniProt P0A2K1 1-397, pyridoxal 5'-phosphate (PLP) as internal aldimine; Lys87 named in the active site)
T1 construct: Tryptophan synthase beta chain (TrpB), Salmonella typhimurium; also called TS β-subunit
T1 sequence: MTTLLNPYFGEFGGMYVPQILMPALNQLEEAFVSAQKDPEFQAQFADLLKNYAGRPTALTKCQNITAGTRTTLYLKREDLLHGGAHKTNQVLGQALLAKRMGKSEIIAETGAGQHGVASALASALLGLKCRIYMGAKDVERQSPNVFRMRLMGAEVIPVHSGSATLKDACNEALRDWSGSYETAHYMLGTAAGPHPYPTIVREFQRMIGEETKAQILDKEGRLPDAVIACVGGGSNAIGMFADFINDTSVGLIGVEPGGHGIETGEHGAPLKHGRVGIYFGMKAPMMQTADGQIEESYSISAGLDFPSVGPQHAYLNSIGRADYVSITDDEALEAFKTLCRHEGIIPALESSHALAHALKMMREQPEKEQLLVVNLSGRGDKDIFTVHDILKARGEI
Assay: crystal structure; TrpAB complex purified together; crystals from 17% (w/v) PEG 300, 0.1 M Tris-HCl pH 7.5, 20 mM cesium chloride, 18 °C, hanging drop; space group C 2, one TrpA and one TrpB in the asymmetric unit; cryo-trapped 0, 20, 25 and 30 s after LAMA mixing with indole, serine and G3P
Conditions: both partners purified

B1: Salmonella typhimurium tryptophan synthase TrpA subunit (enzyme)
chain: MERYENLFAQLNDRREGAFVPFVTLGDPGIEQSLKIIDTLIDAGADALELGVPFSDPLADGPTIQNANLRAFAAGVTPAQCFEMLALIREKHPTIPIGLLMYANLVFNNGIDAFYARCEQVGVDSVLVADVPVEESAPFRQAALRHNIAPIFICPPNADDDLLRQVASYGRGYTYLLSRSGVTGAENRGALPLHHLIEKLKEYHAAPALQGFGISSPEQVSAAVRAGAAGAISGSAIVKIIEKNLASPKQMLAELRSFVSAMKAASRA
notes: Tryptophan synthase alpha chain (TrpA), Salmonella typhimurium; also called TS alpha subunit
B1: binds.
